Data taken from patent US20220177587A1, “METHODS AND USES OF VARIANT CD80 FUSION PROTEINS AND RELATED CONSTRUCTS” (Alpine Immune Sciences, Inc., priority 2018, published 2022).

Tests used:
[1] = test system: primary human pan T cells; experiment: Cytokine production following PD-L1-dependent costimulation; assay type: cell-based; details: mitomycin-c treated K562/OKT3/PDL1 aAPC; FIG. 6
huPD-L1/B16-F10 cells = experiment: huPD-L1/B16-F10 melanoma model; assay type: in vivo, mouse
Procedure: This variant is an exemplary variant identified to have increased binding affinity for PD-L1 compared to wild-type CD80 and activity to block PD-L1 and CTLA-4 and to provide PD-L1-dependent T cell activation via CD28 costimulatory receptor. To test the anti-tumor activity of the exemplary variant, it was evaluated alone or in combination with an anti-mouse PD-1 monoclonal antibody (clone RMP1-14, rat IgG2a) in mice bearing human PD-L1 (huPD-L1)-expressing B16-F10 tumors, which is a syngeneic mouse melanoma model. This model is an aggressive and, in many cases, a treatment-resistant model.
Subconfluent cells (˜80% confluent) were harvested on the day of implantation (study day 0). The cells were washed twice and brought to a final concentration of 5×10^6 cells/mL in DPBS. Female C57BL/6NJ mice (Jackson Labs, USA) were implanted subcutaneously with approximately 0.5×10^6 huPD-L1/B16-F10 cells. […] The B16-F10 cells at time of implant were evaluated to confirm expression of huPD-L1 by flow cytometry. […]
Tumors were measured with electronic calipers two-dimensionally twice weekly, beginning on day 6 post-tumor cell implant. Tumor volume was calculated as length×(width×2)×0.5, with the length being the longer of the two measurements. […] Calculations for the mean and median were determined on the last day in which at least 70% of mice were alive on study (day 18 post-tumor cell implant).

[2] = test system: PBMC obtained from CMV seropositive donor; experiment: Cytomegalovirus (CMV) antigen-specific T cell functional assay; assay type: cell-based, human
Procedure: Peripheral blood mononuclear cells (PBMC) obtained from CMV seropositive donor were thawed and CMV lysate added at 1 μg/mL to 250,000/well PBMC. […] In addition, the anti-PD-1 antibody alone was also tested. An Fc only molecule was also tested as control. Supernatant was collected 48 hours after incubation to assay IL-2 by ELISA.
The multivalent variant CD80 IgSF domain fusion proteins were assessed to test for IL-2 production in the CMV assay substantially as described in Example 22. Exemplary multivalent variant CD80 IgSF domain fusion proteins generated as described above were tested at various concentrations from 100000 pM to 46 pM

[3] = test system: huPD-L1-expressing MC38 tumors; experiment: huPD-L1 MC38 tumor model, IP or IT delivery; assay type: in vivo, mouse
Procedure: The MC38 cell line was transduced with human PD-L1 (huPD-L1) Subconfluent cells (˜80% confluent) were harvested on the day of implantation (study day 0), washed twice and brought to a final concentration of 15×10^6 cells/mL in DPBS. Female C57BL/6NJ mice (Jackson Labs, USA) were implanted subcutaneously with approximately 1.5×10^6 cells (0.1 mL) in the right mid-flank region.
On day 7, mice were randomized into six groups, with each group having a similar mean tumor volume (46.6 mm^3).
Tumor volume was measured as described in Example 21 to assess anti-tumor activity. Median tumor growth curves among individual treated mice over time were plotted.
On day 11 post-tumor cell implant and prior to dosing of test articles, five mice from each of Group 1-4 and Group 6 were sacrificed, and the tumors were harvested, weighed and processed for ex vivo tumor analysis. The MC38 cells at time of implant and tumors harvested from a subset of mice on day 11 by enzymatic digestion were evaluated for expression of huPD-L1 or human IgG (to detect Fc of cell-bound test molecules) by flow cytometry. The percent positive and median fluorescent intensity (MFI) of huPD-L1 and huIgG were quantified on the CD45-negative subset of tumor cells.
Tumors at day 11 were also evaluated for CD8+ T cells and for antigen-specific CD8+ T cells within the CD3+ cell population. p15E is an MHC class I restricted T cell antigen expressed in the MC38 tumor cell lines derived from C57BL/6 mice. A mouse MHC class I p15E tetramer labeled with PE (MBL International Corp.) was used to detect the p15E-MHC class I restricted T cell receptor.

Mouse PK model = assay type: in vivo; details: mouse PK model estimate
From the text: (§1) A PK model was designed as a two compartment model with intercompartmental distribution (Q) between the first compartment (Central Compartment, V1) and the second compartment (Peripheral Compartment, V2). To capture intraperitoneal (IP) or subcutaneous (SC) injection routes, a third compartment (Depot Compartment) was included with a first-order rate constant (Ka) linking the third compartment uni-directionally to the first compartment. The model also included a constant F to account for loss in the amount of drug available to diffuse from the third compartment (Depot Compartment) to the first compartment (Central Compartment, V1) due to IP or SC injection. The total amount of available drug in the third compartment (Depot Compartment) is described as F×Dose. For intravenous injections (IV), the third compartment (Depot Compartment) was omitted.
Drug clearance (CL) from the first compartment (Central Compartment, V1) was modeled differently for each species. In the mouse model, a time-dependent increase in clearance due to the formation of anti-drug antibodies was accounted for as follows:
(§2) For monkeys, linear clearance from the first compartment (Central Compartment, V1) was assumed.
PK was also compared in tumor-bearing versus non-tumor-bearing mice. […] All treatments were administered IP. PK was determined in tumor-bearing mice in all groups and compared to the predicted PK in non-tumor bearing mice.

Monkey PK model = assay type: in vivo, cynomolgus monkey; details: monkey PK model estimate
From the text: as §1, §2

With “H18Y/A26E/E35D/M47L/V68M/A71G/D90G: variant CD80 IgV-Fc (inert), IgV SEQ ID NO:491” as the substance, how does the “IL-2 secretion in culture supernatants” value [1] read?
Its value is “resulted in IL-2 secretion in culture supernatants”.

What about the tumor growth inhibition (huPD-L1/B16-F10 cells; in combination with anti-PD-1 mAb, day 18) of the same substance?
The tumor growth inhibition was 92%.

What about the “tumor growth (median tumor volumes)” value (huPD-L1/B16-F10 cells; in combination with anti-mouse PD-1 mAb, IP days 6, 8, 11) of the same substance?
Its value is “significantly reduced tumor growth”.

And the IL-2 production ([2]; alone, 48 hours, FIG. 23)?
Its IL-2 production is “showed augmentation of IL-2 production compared to the Fc only control”.

And the IL-2 production ([2]; in combination with 50 nM anti-PD-1 antibody (nivolumab))?
The IL-2 production was “greater increase in IL-2 production compared to levels of IL-2 production in the presence of either molecule alone”.

And the “percent of p15E-specific CD8+ T cells in tumors” value ([3]; 500 or 1500 μg IP or 100 μg IT, day 11)?
The value was “significantly greater percent of p15E-specific CD8+ T cells as compared to Fc control-treated mice”.

What about the anti-tumor growth activity ([3]; IT injection 100 μg on days 8, 11 and 14) of the same substance?
The anti-tumor growth activity was “substantial anti-tumor growth activity”.

What about the “anti-tumor activity (tumor volume)” value ([3]; single IP injection 100, 500, 1500 μg) of the same substance?
The value was “dose-dependent increase in anti-tumor activity compared to Fc control treatment”.

And the CL (Mouse PK model)?
The CL was 1.34 mL/day.

And the F (Mouse PK model)?
Its F is 99%.

And the Ka (Mouse PK model)?
Its Ka is 4.53 day⁻¹.

What about the Q (Mouse PK model) of the same substance?
The Q was 26.5 mL/day.

What about the V1 (Mouse PK model) of the same substance?
Its V1 is 1.94 mL.

And the V2 (Mouse PK model)?
The V2 was 8.88 mL.

And the β (Mouse PK model; time-dependent clearance constant)?
Its β is 0.0685 day⁻¹.

And the CL (Monkey PK model)?
Its CL is 1.31 mL/h/kg.

And the F (Monkey PK model)?
The F was 66.4%.

What about the Ka (Monkey PK model) of the same substance?
Its Ka is 0.728 day⁻¹.

What about the Q (Monkey PK model) of the same substance?
Its Q is 4.37 mL/h/kg.

And the V1 (Monkey PK model)?
Its V1 is 0.0509 L/kg.

And the V2 (Monkey PK model)?
The V2 was 0.158 L/kg.
